Experimental data from paper doi:10.1101/2025.02.14.638310 (bioRxiv, 2025).

How the values were obtained:
[1] = molecular target: T1, Pfs230 fused C-terminally with a 3xFLAG-C-tag (endogenous, parasite line iGP2^230-tag) (Plasmodium falciparum (endogenous in …, UniProt P68874 21-3135)); test: affinity purification with mass spectrometry; conditions: partners not purified
T1 construct: not shown: 3xFLAG, C-terminal, kept

[2] = molecular target: T2, Pfs230:Pfs48/45 complex (endogenous, FLAG-tag purified) (Plasmodium falciparum (isolate 3D7)., UniProt P68874;Q8I6T1); test: native gel or EMSA; conditions: both partners purified
T2 construct: not shown: 3xFLAG, C-terminal, kept

Pfs48/45 (endogenous) = Pfs48/45 (endogenous) (Plasmodium falciparum (endogenous in …, UniProt Q8I6T1)); test: cryo-EM structure; conditions: both partners purified
[3] = molecular target: T3, Pfs230 fused C-terminally with a 3xFLAG-C-tag (endogenous, parasite line iGP2^230-tag) (Plasmodium falciparum (endogenous in …, UniProt P68874)); test: native gel or EMSA; conditions: both partners purified
T3 construct: not shown: 3xFLAG, C-terminal, kept

[4] = molecular target: T4, Pfs230D7 (recombinant, WT) (Plasmodium falciparum 3D7, UniProt P68874); test: SPR; conditions: both partners purified
T4 construct: source: wheat germ cell-free extract WEPRO7240H with Disulfide Bond Enhancer Enzyme Set, purified (Ni Sepharose 6 Fast Flow)

T3 sequence (P68874 21-3135): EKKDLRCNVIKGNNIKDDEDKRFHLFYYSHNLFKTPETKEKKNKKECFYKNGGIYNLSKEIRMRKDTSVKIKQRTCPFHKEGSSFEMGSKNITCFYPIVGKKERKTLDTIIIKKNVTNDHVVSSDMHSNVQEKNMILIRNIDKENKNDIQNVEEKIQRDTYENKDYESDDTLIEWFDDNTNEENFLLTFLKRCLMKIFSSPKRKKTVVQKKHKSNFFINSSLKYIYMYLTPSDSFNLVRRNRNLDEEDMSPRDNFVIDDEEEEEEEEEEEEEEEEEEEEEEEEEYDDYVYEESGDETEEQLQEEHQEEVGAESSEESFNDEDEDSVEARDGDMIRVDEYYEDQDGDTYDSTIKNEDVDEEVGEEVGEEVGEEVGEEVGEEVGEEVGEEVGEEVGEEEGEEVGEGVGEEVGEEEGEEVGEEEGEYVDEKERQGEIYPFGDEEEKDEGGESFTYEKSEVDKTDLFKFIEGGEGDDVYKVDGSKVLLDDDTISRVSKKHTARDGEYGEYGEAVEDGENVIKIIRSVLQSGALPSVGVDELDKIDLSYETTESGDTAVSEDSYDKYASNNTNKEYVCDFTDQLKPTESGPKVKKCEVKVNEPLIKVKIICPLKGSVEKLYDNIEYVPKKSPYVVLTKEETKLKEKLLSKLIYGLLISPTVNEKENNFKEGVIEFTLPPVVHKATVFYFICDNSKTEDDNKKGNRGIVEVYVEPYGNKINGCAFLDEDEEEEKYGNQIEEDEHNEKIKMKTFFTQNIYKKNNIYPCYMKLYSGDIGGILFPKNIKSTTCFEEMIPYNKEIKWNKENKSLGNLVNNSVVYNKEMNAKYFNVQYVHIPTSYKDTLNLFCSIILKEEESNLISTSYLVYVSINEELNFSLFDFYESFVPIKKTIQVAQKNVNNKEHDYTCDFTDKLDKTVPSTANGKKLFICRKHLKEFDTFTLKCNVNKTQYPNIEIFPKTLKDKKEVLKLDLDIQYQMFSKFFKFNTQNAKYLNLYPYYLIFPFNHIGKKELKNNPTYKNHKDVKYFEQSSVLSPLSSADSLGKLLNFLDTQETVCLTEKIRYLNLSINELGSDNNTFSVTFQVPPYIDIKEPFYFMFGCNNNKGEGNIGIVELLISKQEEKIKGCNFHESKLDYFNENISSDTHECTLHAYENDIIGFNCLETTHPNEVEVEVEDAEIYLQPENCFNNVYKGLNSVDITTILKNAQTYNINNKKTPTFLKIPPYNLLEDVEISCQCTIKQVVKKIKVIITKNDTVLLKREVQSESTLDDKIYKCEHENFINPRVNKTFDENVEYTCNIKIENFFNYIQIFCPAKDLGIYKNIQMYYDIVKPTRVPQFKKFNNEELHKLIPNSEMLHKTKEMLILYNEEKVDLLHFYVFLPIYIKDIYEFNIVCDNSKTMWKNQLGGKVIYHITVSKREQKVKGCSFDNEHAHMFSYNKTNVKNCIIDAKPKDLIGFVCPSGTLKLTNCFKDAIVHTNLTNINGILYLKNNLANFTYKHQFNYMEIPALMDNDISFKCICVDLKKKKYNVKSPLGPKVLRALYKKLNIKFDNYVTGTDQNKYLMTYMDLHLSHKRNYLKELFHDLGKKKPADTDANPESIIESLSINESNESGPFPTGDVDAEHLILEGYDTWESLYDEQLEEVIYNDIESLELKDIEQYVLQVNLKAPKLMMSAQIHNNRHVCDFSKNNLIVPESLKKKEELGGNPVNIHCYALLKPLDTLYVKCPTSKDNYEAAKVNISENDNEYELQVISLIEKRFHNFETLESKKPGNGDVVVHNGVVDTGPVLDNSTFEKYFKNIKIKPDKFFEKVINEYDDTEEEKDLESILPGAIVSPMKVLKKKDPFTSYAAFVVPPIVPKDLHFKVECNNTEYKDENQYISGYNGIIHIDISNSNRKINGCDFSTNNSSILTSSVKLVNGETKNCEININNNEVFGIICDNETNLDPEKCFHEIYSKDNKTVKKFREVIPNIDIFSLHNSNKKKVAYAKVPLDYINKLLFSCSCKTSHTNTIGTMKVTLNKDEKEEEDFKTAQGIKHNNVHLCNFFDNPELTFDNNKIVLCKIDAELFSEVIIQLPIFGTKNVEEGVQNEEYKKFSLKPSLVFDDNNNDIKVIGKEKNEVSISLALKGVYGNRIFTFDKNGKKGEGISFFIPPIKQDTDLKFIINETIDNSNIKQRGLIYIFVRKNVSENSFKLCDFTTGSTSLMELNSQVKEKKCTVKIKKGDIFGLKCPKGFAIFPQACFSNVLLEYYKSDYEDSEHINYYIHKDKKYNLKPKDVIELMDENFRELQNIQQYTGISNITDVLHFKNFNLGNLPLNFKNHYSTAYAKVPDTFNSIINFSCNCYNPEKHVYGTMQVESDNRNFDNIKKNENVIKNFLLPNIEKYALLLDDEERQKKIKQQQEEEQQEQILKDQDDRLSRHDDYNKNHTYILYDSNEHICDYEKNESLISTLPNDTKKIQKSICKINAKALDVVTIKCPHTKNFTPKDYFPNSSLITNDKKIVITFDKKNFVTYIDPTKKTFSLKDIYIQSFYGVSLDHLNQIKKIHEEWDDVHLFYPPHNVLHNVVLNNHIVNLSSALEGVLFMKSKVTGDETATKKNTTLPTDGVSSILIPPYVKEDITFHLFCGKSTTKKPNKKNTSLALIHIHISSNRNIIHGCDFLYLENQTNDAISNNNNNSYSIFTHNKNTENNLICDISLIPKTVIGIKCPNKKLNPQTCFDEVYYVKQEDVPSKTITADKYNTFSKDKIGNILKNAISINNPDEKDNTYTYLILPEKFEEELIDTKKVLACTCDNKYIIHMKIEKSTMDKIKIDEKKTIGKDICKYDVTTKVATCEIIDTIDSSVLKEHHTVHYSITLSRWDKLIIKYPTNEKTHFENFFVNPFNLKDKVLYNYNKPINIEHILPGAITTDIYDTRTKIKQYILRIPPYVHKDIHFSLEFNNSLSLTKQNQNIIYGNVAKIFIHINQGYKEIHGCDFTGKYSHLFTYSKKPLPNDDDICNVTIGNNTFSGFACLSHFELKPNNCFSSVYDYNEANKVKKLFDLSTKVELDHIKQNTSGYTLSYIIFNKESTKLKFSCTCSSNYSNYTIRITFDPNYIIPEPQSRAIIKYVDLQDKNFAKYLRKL

B1: Pfs48/45 (endogenous) (natural protein)
chain: NNDFCKPSSLNSEISGFIGYKCNFSNEGVHNLKPDMRERRSIFCTIHSYFIYDKIRLIIPKKSSSPEFKILPEKCFQKVYTDYENRVETDISELGLIEYEIEENDTNPNYNERTITISPFSPKDIEFFCFCDNTEKVISSIEGRSAMVHVRVLKYPHNILFTNLTNDLFTYLPKTYNESNFVSNVLEVELNDGELFVLACELINKKCFQEGKEKALYKSNKIIYHKNLTIFKAPFYVTSKDVNTECTCKFKNNNYKIVLKPKYEKKVIHGCNFSSNVSSKHTFTDSLDISLVDDSAHISCNVHLSEPKYNHLVGLNCPGDIIPDCFFQVYQPESEELEPSNIVYLDSQINIGDIEYYEDAEGDDKIKLFGIVGSIPKTTSFTCICKKDKKSAYMTVTID
[1]
  binding result: binds

B2: RUPA-71 Fab (Fab, V domains shown)
VH: EEQLVESGGGLVKPGRSLRLSCSASGFTLGDYAVTWFRQASGKEPEWVGVIRTKDEGGTTEYAASVKGRFSILRDDSKSIAHLQMNSLKIEDTAVYYCTRNGLRWYDSSGPRGWAFDIWGPGTLVVVSS
VL: EIVMTQSPATVSVSPGERATLSCRTSQSVSNKLAWYQQKPGQAPRLLIYGASTRATGIPARFSGSGSGTQFTLTISSLQSEDFAVYYCQQYNNWPPWTFGRGTKVEIK
notes: source: Freestyle 293-F or 293-S cells, transfected, purified (KappaSelect, MonoS cation exchange)
[2]
  binding result: binds
Pfs48/45 (endogenous)
  binding result: binds

B3: 2A2 Fab (Fab, V domains shown)
VH: EVQLQQSGPELEKPGASVKISCKASGYSITDYNMNWVKLSNGKSLEWIGNIDPSHGGTTYNQKFKGKATLTVDKSSSTAYMQLKSLTSEDSAVYHCARSTLYGNSAMDCWGQGTSVTVSS
VL: SIVMTQTPKFLLVPAGDRVTITCKASQSVNNDVTWYQQKPGQSPKLLIYYASNRYTGVPDRFTGSGYGTDFTFTISTVQAEDLAVYFCQQDYSSPLTFGAGTKLEL
notes: also called mAb 2A2; 2A2.2a; source: Freestyle 293-F or 293-S cells, transfected, purified (KappaSelect, MonoS cation exchange)
[3]
  binding result: binds

B4: 18F25 Fab (Fab, V domains shown)
VH: QVQLQQSGAELARPGASVKLSCKASGYTFTNYWMQWVKQRPGQGLEWFGAIYPGDGDTRYTQKFKGKATLTADKSSSTAYMQLSSLASEDSAVYYCARSLYLGAMDYWGQGTSVTVSS
VL: DIVMTQSHKFMSTSVGDRVSITCKASQDVTNDVAWYQQKPGQSPKLLIYSASYRYTGVPDRFTGSGSGTDFIFTISSVQAEDLAVYYCQQHYSAPPTFGGGTKLEIK
notes: also called mAb 18F25; 18F25.1; source: Freestyle 293-F or 293-S cells, transfected, purified (KappaSelect, MonoS cation exchange)
[4]
  Kd: 1.8 nM

B5: RUPA-44 Fab (Fab, V domains shown)
VH: QLQLQESGPGLVKPSETLSLTCTVSGGSISRSPYYWGWIRQPPGKGLEWFGSIYNNGSTYYNPPLKSRLTISVDTSKNQFSLKLSSVTAADTAVYYCARHGGSTGMKVVVIAPPDYWGQGTLVTVSS
VL: DIQMTQSPATLSASVGDRVTITCRASQSISSWLAWYQQKPGEAPKLLIYKASSLQSGVPSRFSGSGSGTKFSLTISSLQPDDFATFYCQQYHSYPYTFGQGTKLEIK
notes: as for B2
Pfs48/45 (endogenous)
  binding result: binds

B6: RUPA-47 Fab (Fab, V domains shown)
VH: QVQLVQSGAEVKKPGASVKLSCTASGYTFTNFGITWVRQAPGQGLEWMAWISVYSGDTDYAQRFQGRVTMTTDTSTRTAYMEMRSLSFDDTAVYYCVRGGRDSPILGGYWGQGTLVTVSS
VL: EIVLTQSPGTLSLSPGERVTLSCRASQSVRSMYLAWYQQKPGQAPRLLIHGASIRATGIPDRFSGSGSGTDFTLTISRLEREDFAVYYCHQYGSSPLTFGGGTKVESK
notes: as for B2
[2]
  binding result: binds
[3]
  binding result: no binding (tested: tenfold molar excess Fab)
